We go through 23 molecules from paper PMC10148881 (2023).

To fix the notation:
B13: Pirh2 NTD + RING (residues 1–189) (domain or fragment)
chain: MAATAREDGASGQERGQRGCEHYDRGCLLKAPCCDKLYTCRLCHDNNEDHQLDRFKVKEVQCINCEKIQHAQQTCEECSTLFGEYYCDICHLFDKDKKQYHCENCGICRIGPKEDFFHCLKCNLCLAMNLQGRHKCIENVSRQNCPICLEDIHTSRVVAHVLPCGHLLHRTCYEEMLKEGYRCPLCMHS

Several values for one entry are separate records, joined by “and”; a condition that tells them apart may be missing. Equal entries are not always repeated. Where two headings read alike, the source gives them in different places. Ends that are not written are not given here.

Common to all, as to test: ITC
(In general: Isothermal titration calorimetry measures the heat released or taken up as one component is titrated into another.)

For assay [1], the target named is B13.
Assay [2] addresses B13.
For assay [3], the target named is B13.
The target of the next assay is unnamed.
For assay [4], the target named is polyAla/C-degron peptide containing five Ala residues.
Assay [5] deals with polyAla/C-degron peptide containing four Ala residues.
The target of another assay is T1, Pirh2 I107D (Homo sapiens).
T1 chain: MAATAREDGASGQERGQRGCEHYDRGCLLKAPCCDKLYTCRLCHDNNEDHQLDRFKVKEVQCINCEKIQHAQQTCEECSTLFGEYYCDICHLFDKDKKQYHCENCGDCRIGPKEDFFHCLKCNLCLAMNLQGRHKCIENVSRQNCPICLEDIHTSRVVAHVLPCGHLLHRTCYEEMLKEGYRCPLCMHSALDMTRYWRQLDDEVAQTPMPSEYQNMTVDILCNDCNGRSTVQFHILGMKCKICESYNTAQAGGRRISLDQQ

The target in assay [6] is T2, Pirh2 with Ile110 substituted with a negatively charged residue (human, UniProt Q96PM5 1-261).
T2 sequence (Q96PM5 whole entry, looked up) 1: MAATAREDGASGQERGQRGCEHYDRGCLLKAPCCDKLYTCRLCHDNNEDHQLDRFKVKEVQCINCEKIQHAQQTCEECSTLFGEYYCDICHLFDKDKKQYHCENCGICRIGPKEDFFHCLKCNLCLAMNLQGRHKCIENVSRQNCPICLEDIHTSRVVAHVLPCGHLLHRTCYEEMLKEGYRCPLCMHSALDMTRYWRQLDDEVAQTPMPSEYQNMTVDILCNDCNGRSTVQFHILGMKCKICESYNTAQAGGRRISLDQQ
T2 sequence (Q96PM5 whole entry, looked up) 2: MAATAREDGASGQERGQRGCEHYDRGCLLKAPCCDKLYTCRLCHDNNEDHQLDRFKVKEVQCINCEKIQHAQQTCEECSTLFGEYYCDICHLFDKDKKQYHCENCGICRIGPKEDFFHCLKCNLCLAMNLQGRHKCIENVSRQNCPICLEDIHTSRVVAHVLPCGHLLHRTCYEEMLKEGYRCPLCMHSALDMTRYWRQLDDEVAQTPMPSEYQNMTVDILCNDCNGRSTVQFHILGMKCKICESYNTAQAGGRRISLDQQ

B1: three-Ala peptide (peptide)
chain: YKTSAAA
One may read the Kd as the equilibrium constant for the complex coming apart. As to B1, the Kd in assay [1] is over 100 µM.

B2: Ala6/C-degron peptide with Ala-3 substituted with isoleucine (peptide)
chain: YKTSAAAIAA
Regarding B2, the equilibrium dissociation constant (Kd) in assay [2] worked out at 2.7 µM; in assay [3], 1.5 µM.

B3: YKTSAAAA (peptide)
chain: YKTSAAAA
Take B3: the dissociation constant Kd in assay [2] amounted to 0.8 µM.

B4: Ala6/C-degron peptide with the threonine mutation of Ala-6 (peptide)
chain: YKTSTAAAAA
On to B4, for which the equilibrium dissociation constant (Kd) in assay [2] worked out at 0.5 µM.

B5: Ala6/C-degron peptide with Ala-1 replaced with glycine (peptide)
chain: YKTSAAAAAG
Take B5: the Kd in assay [2] was 23 µM.

B6: YKTSAASA (peptide)
chain: YKTSAASA
Turning to B6, the equilibrium dissociation constant (Kd) in assay [2] was determined as 20 µM.

B7: Ala6/C-degron peptide with Ala-2 substituted with isoleucine (peptide)
chain: YKTSAAAAIA
For B7, the dissociation constant Kd in assay [2] came out at 13 µM; in assay [3] it was 10 µM.

B8: Ala6/C-degron peptide with Ala-3 substituted with proline (peptide)
chain: YKTSAAAPAA
In the case of B8, the Kd in assay [2] came to 0.9 µM; in assay [3], 0.5 µM.

B9: Ala6/C-degron peptide with the threonine mutation of Ala-5 (peptide)
chain: YKTSATAAAA
In the case of B9, the Kd in assay [2] stood at 0.5 µM.

B10: Ala6/C-degron peptide with Ala-4 substituted with proline (peptide)
chain: YKTSPAAA
In the case of B10, in assay [2], the equilibrium dissociation constant (Kd) was determined as 57 µM.

B11: Ala6/C-degron peptide with Ala-3 substituted with lysine (peptide)
chain: YKTSAAAKAA
On to B11, for which the Kd in assay [3] was found to be 2.1 µM.

B12: YKTSAAGA (peptide)
chain: YKTSAAGA
As for B12, the Kd in assay [2] came to 22 µM.

With B13, the Kd with unnamed was 8.6 µM and 12 µM; in assay [4], 2.5 µM; in assay [5], 7.4 µM.

B14: Ala6/C-degron peptide with Ala-4 substituted with serine (peptide)
chain: YKTSAASAAA
As to B14, in assay [2], the Kd was 4.5 µM.

B15: Ala6/C-degron peptide (sequence: YKTSAAAAAA) (peptide)
peptide: YKTSAAAAAA
modifications: not fully specified
With B15, in the assay with Pirh2 I107D, binding was put at a Kd of 9.1 µM.

B16: Ala6/C-degron peptide (sequence: YKTSAAAAAA) (peptide)
peptide: YKTSAAAAAA
Take B16: binding in assay [6] was put at a Kd of 40 µM.

B17: YKTSAVAA (peptide)
chain: YKTSAVAA
Take B17: the Kd in assay [2] is 1.9 µM.

B18: YKTSAAVA (peptide)
chain: YKTSAAVA
On to B18, for which the dissociation constant Kd in assay [2] amounted to 13 µM.

B19: YKTSAGAA (peptide)
chain: YKTSAGAA
For B19, the dissociation constant Kd in assay [2] is 2.3 µM.

B20: AAAAAA (peptide)
chain: AAAAAA
For B20, in assay [1], the dissociation constant (Kd) is 0.9 µM.

B21: Ala6/C-degron peptide with the threonine mutation of Ala-3 (peptide)
chain: YKTSAAATAA
As to B21, the Kd in assay [2] came to 0.7 µM.

B22: YKTSAAPA (peptide)
chain: YKTSAAPA
Take B22: the equilibrium dissociation constant (Kd) in assay [2] came out at 26 µM.

B23: YKTSASAA (peptide)
chain: YKTSASAA
For B23, the Kd in assay [2] is 3 µM.
